Measurements reported in the nanobody polyreactivity screen of Harvey et al. (2022).

test: yeast display, Sf9 membrane polyspecificity reagent, FACS + sequencing; frameworks hold sequencing errors
Method in brief: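 Sorting gates, low and high (top ~1%), were placed on anti-HA fluorescence to track expression and on streptavidin fluorescence to track reagent binding. A clone's polyreactivity label is taken from the gate it came out of. The reagent was 10% biotinylated, detergent-solubilized Sf9 membrane, applied for 1 hour at 4 °C to galactose-induced yeast display cells.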

Sequence	polyreactivity (PSR sort gate)
QVQLVESGGGLVQAGGRLRLSCAASGYTFAGNAMGGYRPAPGKERELVAVITYSGGSTYYADSVKGRFTISRDNAKNTVYLQMNSLKPEDTAVYYCAADWQYSPRMDYWGQGTQVTVSS	low polyreactivity
QVQLVESGGGLVQAGGRLRLSCAASGYTFGVYDMGWYRQAPGKERELVAAISGSTYYADSVKGRFTISRDNAKNTVYLQMNSLKPEDTAVYYCAAESYFFSPRTREKFDYWGQGTQVTVSS	low polyreactivity
QVQLVESGGGLVQAGGRLRLSCAASVFTYKSYAMVWYRQAPGKERELVASIDKSTGNTFYADSVKGRFTISRDNAKNTVYLQMNSLKPEDTAVYYCAVDLLRSESHSKHIIYDYWGQGTQVTVSS	low polyreactivity
QVQLVESGGGLVQAGGRLRLSCAASVNTFGANAMGWYRQAPGKESELVADITQSGGSTYYADSVKGRFTISRDNAKNTVYLQMNSLKPEDTALYYCNIVTRYYTPFEEYDYWGQGTQVTVSS	low polyreactivity
QVQLVESGGGLVQAGGRLRLSCAATGRTFGRNAMGWYRQAPGKERELVAAINGNGGRTYYADSVKGRFTISRDNAKNTVYLQMNSLKPEDTAVYYCAADLRRSDYDYWGQGTKVTVSS	high polyreactivity
QVQLVESGGGLVQAGGRLRLSCAATGRTFLPNAMGWYRQAPGKERELVASINGDGTTNYADSVKGRFTISRDNAKNTVYLQMNSLKPEDTAVYYCAADGYGGYYRGTYYTVYYWGQGTQVTLSS	low polyreactivity
QVQLVESGGGLVQAGGRLRLSCAAYGRIFDYYAMGWYRPAPGKEREFVAGITSTGGSTYYADSVKGRFTISRDNAMNTVYFQMNSLKPEDTPVYYCNVVKRLRHGYDYWGQGNQVTVSS	high polyreactivity
QVQLVESGGGLVQAGGRLRLSCAAYGRTFSDYTMGWYRQAPGKERELVAAISRRGGTTYYADSVKGRFTISRDNAKNTVYLQMNSLKPEDTAVYYCAAKRYRPKYEYDYWGQGTQVTVSS	high polyreactivity
QVQLVESGGGLVQAGGRLRLSCAAYGSIFMYYAMGWYRQSPVKERELVAAITRGGSTYYADSVKGRFTISRDNAKNTVYLQMNSLKPEDTAVYYCAATTFRSVGYDYWGQGTQVTVSS	low polyreactivity
QVQLVESGGGLVQAGGRLRLSCADSGRIFVKNTMGWYRQAPGKERELVAAISWSGGSTYYADSVKGRFTISRDNAKNTVYLQMNSLKPEDTAVYYCNARKRTKLSYPKFDYWGQGTQVTVSS	high polyreactivity
QVQLVESGGGLVQAGGRLRLSCAHSGIIFFFYAMGWYRQAPGKERELVAAISDDGVSTDYADSVKGRFTISRDNAKNTVYLQMNSLKPEDTAVYYCAAKTERVYPWFSFGYWGQGTQVTVSS	low polyreactivity
QVQLVESGGGLVQAGGRLRLSCAPSGSTFSTYAMGSYRQAPGNERELVAVITWRGGSTYYADSVKGRFTISRDNAKNTVYLQMNSLKPEDTAVYYCAAEGESPEYDYWGQGTQVTVSS	low polyreactivity
QVQLVESGGGLVQAGGRLRLSCDASGSIFYYYTMGWYRQAPGKEREFVAAITWRGASTYYADSVKGRFTISRDNAKNTVDLKMNSLKPEDTAVDYCNARWRVPRYRYDYWGQGTQVTVSS	high polyreactivity
QVQLVESGGGLVQAGGRLRLSCTASGRPLYNYTMGWYRQAPGKERELVATINFSGGSTYYADSVKGRFTISRDNAKNTVYLQMNSLKQEDTAVYYCTARGYHYAYKGAYLGDDYWGQGTQVTVSS	low polyreactivity
QVQLVESGGGLVQAGGRLRLSSAASGLTFPYYAMGWYRQAPGKERELVAVITTSTGTTYYADSVKGRFTISRDNAKNTVYLQMNSLKPEVTAVYYCATDTGAYWYSLYDYWGQGTQVTVSS	low polyreactivity
QVQLVESGGGLVQAGGRLRLSSAASGRIFASNAMGWYRQAPGKERELVARIDSGGITNYADSVKGRFTISRDNAKNTVYFQMNSLKPEDTGVYYCAKSVGWWSPPLGVYWVQGTQVTVSS	low polyreactivity
QVQLVESGGGLVQAGGRLRLSSAASGRTFYPNAMGWYRKAPLKERELVAAISGSGGSTYYADSVKGRFTISRDNAKNTVYLQMNSLKPEDTAVYYCAAYPEYLVGYRYGSWGQGTQVTVSS	high polyreactivity
QVQLVESGGGLVQAGGRLRLTCAASASIFYYYTMGWYRQAPGKERELVAAINSIGGRTYYADSVKGRFTISRDNAKNTVYLQMNSLKQEDNAVYYCNAVLDPGDQDDYDYWGQGTQVTLSS	low polyreactivity
QVQLVESGGGLVQAGGRLRLTCAASGYIFDVNAMGWYRHAPGKERELVAAISQRGTRTYYADSVKGRFTISRDNAKNSVYLQMNSLKPEDTAVYFCNRGGWRQYDSWVQGTQVTVSS	high polyreactivity
QVQLVESGGGLVQAGGRLSLSCAASGSIFNQYAMGWHRQAPGKERELVAAISSDGGRTYYADSVKGRFTISRDNAKITVYLQMNSLKPEDTAVYYCNADFPAYGLECDVYWGQGTQVTVSS	low polyreactivity
QVQLVESGGGLVQAGGRRRLICAASGSTFVRNAMGWYRQAPGKERELVATISSGGGTKYADSVKGRFTISRDNAKNTVYLQMNSLKPEDTAVYYCAARYRSYAVRLRGYDYWGQGTQVTVSS	high polyreactivity
QVQLVESGGGLVQAGGSGRLSCAASGRTTRDYAMGWYRQAPGKERELVAAIRWRGVSTYYADSVKGRFTISRDNAKNTVDVQMNSLKPEDTAVYYCAKRESVSTSAGKGAMDSWGQGTQVTVSS	high polyreactivity

Sequence	polyreactivity (PSR sort gate)
QVQLVESGGGLVQAGGSGRLSCAASGSILPSYAMGWYRQAPGKERELVAAISRRGGSTYYADSVKGRFSISRDNAKNTVYLQMNSLKPEDTAVYYCAAGSYSGYDYWGQGTQVTVSS	low polyreactivity
QVQLVESGGGLVQAGGSHRFRCAASGSTIVSDAMGLYRHAPGKERELDATISWRGGSTYYADSVKGRFTISRDNAKNTVYLQMNSLKPEDTAVYDCAADLWHSQYYYGYEYWGQGTQVNVSS	low polyreactivity
QVQLVESGGGLVQAGGSHRLSCAASGFIFGRNAMGWYRQATGKDRELVDANTRSGGSTYYADSVKGRFTISRDNAKNTVYLQLYSLKPEDTAVYYCAKGLFTWGVFRVGIRDDYWGQGTQVTVSS	high polyreactivity
QVQLVESGGGLVQAGGSHRLSCAASGFTFTYYAMGWYRQAPGKERELVADITSGGGTNYADSVKGRFTISRDNAKNTVFLQMNSLKPEDTAVYYCAADAYHQGMDYWGQGTQVTVSS	low polyreactivity
QVQLVESGGGLVQAGGSHRLSCAASGGTFSNNAMGWYRQAPGKERELVAAISNSGGRTYYADSVKGRFTISRDNAKNTVYLQMNSLKPEDTAVYYCNARYRLMDYWGQGTQVTVSL	high polyreactivity
QVQLVESGGGLVQAGGSHRLSCAASGITFTVNSMGWYRQAPGKERELVAAISNDGSTYYADSVKGRFTISRDNAKNTVYLQMNSLKPEDTAVYYCAADTWDDFGPYGYDYWGQGTHVTVSS	low polyreactivity
QVQLVESGGGLVQAGGSHRLSCAASGLIFPYNAMGWYRQAPGKERELVAAIDSGVTTYYADSVKGRFTISRDNAKNTVYLQMNSLKPEDTAVYYCAADGLPGPEGDSWGQGTQVTVSS	low polyreactivity
QVQLVESGGGLVQAGGSHRLSCAASGLTFFTYAMGWYRQAPGKERELVATISSRGGRTYYADSVKGRFTISRDNAKNTVYLQMNSLKPEDTAVYYCAARGVWKSKHNYWGQGTQVTVSS	high polyreactivity
QVQLVESGGGLVQAGGSHRLSCAASGRIFDKNAMGWYRQAPGKERELVAAINRSGGRTYYADSVKGRFTISRDNAKNTVYLQMNSLKPEDTAVYYCAADTQGSRYDYWGQGTQVTVSS	high polyreactivity
QVQLVESGGGLVQAGGSHRLSCAASGRIFTSNTMGWYRQAPGKERELVAAITSSGGSMYYADSVKGRFTISRDNAKNTVYLQMNSLIPEDTAVYYCAADTIGYHYWYDYWGQGTQVTVSS	low polyreactivity
QVQLVESGGGLVQAGGSHRLSCAASGRIYYYTMGWYRQAPGKERELVATITSSGSSTYYADSVKGRFTISRDNAKNTFYLQLNRLKPEDTAVYYCAAAGGGVRKVWGGSRYGYWGQGTQVTVSS	high polyreactivity
QVQLVESGGGLVQAGGSHRLSCAASGRTFCKYAMGWYRQAPGKERELVAAITAGGGTKYADSVKGRFTISRDNAKNTVYLQMNSLKPEDTAVYYCAAASGSRRHGYWGQGTQVTVSS	high polyreactivity
QVQLVESGGGLVQAGGSHRLSCAASGRTFVVYAMGWYRQAPGKERELVARIRWRDVSTYYADSVKGRFTISRDNAKTTVYLQMNSLKPEDTAVYYCAARSYTGGGRLYYWGQGTQVTVSS	high polyreactivity
QVQLVESGGGLVQAGGSHRLSCAASGSIFFSNARGWYRQAPGNERELFAAITWTGGSTYYADSVKGRFTISRDNAKNTVYLQMNSLKPEDTAVYYCNAAHQRDWYYAIYHLYYSPYYYWGQGSQVTVSS	low polyreactivity
QVQLVESGGGLVQAGGSHRLSCAASGSIFRQNAMGWYRQAPGKERELVAAITRGGGGTTYYADSVKGRFTISRDNAKNTVYLQMNSLKPEDTAVYYCAKAYEVRVEVDYWGQGTQVTVSS	low polyreactivity
QVQLVESGGGLVQAGGSHRLSCAASGSIFYFNAMGWYRQAPGKEREFVAGITTSGGSTYYADSVKGRFTISRDNAKNTVYLQMNSLKPEDTAVYYCNIVWVYAVTPSSWYKYGSWGQGTQVTVSS	low polyreactivity
QVQLVESGGGLVQAGGSHRLSCAASGSTFDTYPMGWYRQEPGKERELVAAISRSGTSTYYADSVKGRFTISRDNAKNTVYLQMKSLKPEDTAVYYCAAYGPRVNGEIGREYYYWGQGTQVTVSS	low polyreactivity
QVQLVESGGGLVQAGGSHRLSCAASGSTFFRNAKGWYSQAPGKEREWVAANSYSGDSTYYADSVKGRFTISRDNEKNTVSLQMNRLKPDDTAVYYSNAVLFRYRYNYWGQGTQVNVSS	high polyreactivity
QVQLVESGGGLVQAGGSHRLSCAASGSTFFSYAMGWYRQAPGKERELVAAITSNGGTTHYADSVKGRFTISRDNAKNTVYLQMNSLKPEDTAVYYCAKAQGHVRGSRGLQGGRYDYWGQGTQVTVSS	low polyreactivity
QVQLVESGGGLVQAGGSHRLSCAASGSTFVVYSLGWYRQAPGKERELVAAITSSGGRTYYADSVKGRFTISRDNAKNTVYLQMNSLKPDDTAVYYGNAVYSRQSSNKGEYWGQGTQVTVSW	high polyreactivity
QVQLVESGGGLVQAGGSHRLSCAASGTFKAYAMGWYRQAPGKERELVAVISNGGSTYYADSVKGRFTISRDNAKNTVYLQMNSLKPEDTAVYYCAARRGWYAYRFLSGSRLHYYWGQGTQVTVSS	high polyreactivity
